Data from publication PMC5562816, “Rap1 and Cdc13 have complementary roles in preventing exonucleolytic degradation of telomere 5′ ends”.

Molecular target: T1, Rap1 (Naumovozyma castellii, UniProt Q96VU6 1-826)
T1 sequence: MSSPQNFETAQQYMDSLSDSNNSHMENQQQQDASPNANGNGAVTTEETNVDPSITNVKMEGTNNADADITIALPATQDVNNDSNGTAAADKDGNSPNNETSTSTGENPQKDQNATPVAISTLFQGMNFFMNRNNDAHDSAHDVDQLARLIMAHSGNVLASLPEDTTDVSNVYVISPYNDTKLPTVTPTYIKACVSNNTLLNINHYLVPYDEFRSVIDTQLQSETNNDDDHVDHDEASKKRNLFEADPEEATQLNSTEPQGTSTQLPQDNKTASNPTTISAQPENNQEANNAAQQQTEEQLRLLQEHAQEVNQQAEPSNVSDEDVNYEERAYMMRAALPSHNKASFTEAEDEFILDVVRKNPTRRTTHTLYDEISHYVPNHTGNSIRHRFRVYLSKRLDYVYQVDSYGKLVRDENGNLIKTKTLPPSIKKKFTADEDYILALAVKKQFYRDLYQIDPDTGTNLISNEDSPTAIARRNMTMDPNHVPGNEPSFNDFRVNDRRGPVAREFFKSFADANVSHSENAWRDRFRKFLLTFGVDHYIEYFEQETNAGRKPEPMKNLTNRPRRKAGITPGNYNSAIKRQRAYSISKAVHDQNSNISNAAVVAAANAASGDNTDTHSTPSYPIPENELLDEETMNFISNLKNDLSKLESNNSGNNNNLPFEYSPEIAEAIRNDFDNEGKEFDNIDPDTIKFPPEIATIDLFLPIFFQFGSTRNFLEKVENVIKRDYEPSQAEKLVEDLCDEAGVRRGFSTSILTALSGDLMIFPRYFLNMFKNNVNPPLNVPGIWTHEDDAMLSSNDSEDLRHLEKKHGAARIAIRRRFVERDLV
Test: EMSA; EMSA: 10 fmol probe, 1.5 ug competitor mix (E. coli DNA, salmon sperm DNA, yeast tRNA), 1x lambda-exonuclease buffer (67 mM glycine-KOH pH 9.4, 2.5 (unit not given) MgCl2, BSA 50 ug/ul as printed), 8% glycerol, 15 ul, 25 C 15 min; gel 6% in 1x TBE at 4 C
Settings: protein: recombinant; tags: N-terminal 6xHis; label: 32P 3'-deoxy-ATP added to 3' end of C-strand; 3' overhang 9 nt; other end blunt

B1: D17S9m (mixed)
DNA 1: GTCACACGTCACACTCTGGGACTCTCCGTGTCTGGGTGTC
DNA 2: ACACGGAGAGTCCCAGAGTGTGACGTGTGAC
modifications: 5'-phosphate on C-strand (DEPA substrate)
binding result: no binding
